Here are results for one molecule from publication PMC4414150, “Zfra activates memory Hyal-2+ CD3− CD19− spleen cells to block cancer growth, stemness, and metastasis in vivo” (Oncotarget, 2015).

The target in this assay is T1, Zfra16–31.
T1 construct: Zfra, residues 16-31; also called Zfra peptide of amino acid #16–31; source: synthetic peptide (manual synthesis, Genemed Synthesis)
T1 peptide: FRAHTQKNAATPFLAN
Briefly: SDS-PAGE of the incubated peptide (ladder of polymers); peptides alone (2 mM in 100 μl PBS) or mixed together, room temperature, 24 hr (legend; the text says sterile MilliQ water, 48 hr); non-reducing and reducing gels; less polymerization in MilliQ water. The conditions noted are these: both partners purified.

B1: Zfra1–15 (peptide)
peptide: MSSRRSSSCKYCEQD
notes: Zfra, residues 1-15; also called Zfra peptide of amino acid #1–15; source: synthetic peptide (manual synthesis, Genemed Synthesis)
B1: the binding result is “binds”.
